These results are taken from IntAct's records for PubMed 38141762.

The labels stand for the following.
B1: Mitochondrial association factor 1 form b1 (Toxoplasma gondii), A0A140H546 (parent)
chain: MWRIWRCRLSFLFATGCLLGALTAGLGSQMSDSVGRNVQAPAGVADASQEAGDVVEERTERTEEQAFALGPPRRHSSESLFPRNASVTARRRRNRRIALIATAVGVAVILAAVYVLRRRRAQRPQDPEPPAPRSVEDPEVLPEEDEASSSLPPPPPPSPPPPPPVEDPLSPESQTVDLSCLSGTTVRFFGPSHHFGGFTPLYDPAPDKRVATVDAGANALFIGGGGLNGQFAKTLLEEAEKHGIRLTPEELSQHSQRIQQSLLRRAVKSPGKLVELDTGVASPVFARSFGFVPVVPGLMWEESEVGPNVGVTFVHILKPEVTPYGNLNNNVMMYTVAPSGAAPDKTYSLAYKTTIAGVIGAAAAYNDTPAGQQYPVQGLRLPLLGGGIFRRNRSLESIGRANAEGTSLAITRYGPNFELQYMYDPSNAALHGLQEAESTYLASMLD

In one assay the parent is B1. To be noted: with RALGAPA1, Q6GYQ0-1.
RALGAPA1, Q6GYQ0-1, sequence (Q6GYQ0 whole entry): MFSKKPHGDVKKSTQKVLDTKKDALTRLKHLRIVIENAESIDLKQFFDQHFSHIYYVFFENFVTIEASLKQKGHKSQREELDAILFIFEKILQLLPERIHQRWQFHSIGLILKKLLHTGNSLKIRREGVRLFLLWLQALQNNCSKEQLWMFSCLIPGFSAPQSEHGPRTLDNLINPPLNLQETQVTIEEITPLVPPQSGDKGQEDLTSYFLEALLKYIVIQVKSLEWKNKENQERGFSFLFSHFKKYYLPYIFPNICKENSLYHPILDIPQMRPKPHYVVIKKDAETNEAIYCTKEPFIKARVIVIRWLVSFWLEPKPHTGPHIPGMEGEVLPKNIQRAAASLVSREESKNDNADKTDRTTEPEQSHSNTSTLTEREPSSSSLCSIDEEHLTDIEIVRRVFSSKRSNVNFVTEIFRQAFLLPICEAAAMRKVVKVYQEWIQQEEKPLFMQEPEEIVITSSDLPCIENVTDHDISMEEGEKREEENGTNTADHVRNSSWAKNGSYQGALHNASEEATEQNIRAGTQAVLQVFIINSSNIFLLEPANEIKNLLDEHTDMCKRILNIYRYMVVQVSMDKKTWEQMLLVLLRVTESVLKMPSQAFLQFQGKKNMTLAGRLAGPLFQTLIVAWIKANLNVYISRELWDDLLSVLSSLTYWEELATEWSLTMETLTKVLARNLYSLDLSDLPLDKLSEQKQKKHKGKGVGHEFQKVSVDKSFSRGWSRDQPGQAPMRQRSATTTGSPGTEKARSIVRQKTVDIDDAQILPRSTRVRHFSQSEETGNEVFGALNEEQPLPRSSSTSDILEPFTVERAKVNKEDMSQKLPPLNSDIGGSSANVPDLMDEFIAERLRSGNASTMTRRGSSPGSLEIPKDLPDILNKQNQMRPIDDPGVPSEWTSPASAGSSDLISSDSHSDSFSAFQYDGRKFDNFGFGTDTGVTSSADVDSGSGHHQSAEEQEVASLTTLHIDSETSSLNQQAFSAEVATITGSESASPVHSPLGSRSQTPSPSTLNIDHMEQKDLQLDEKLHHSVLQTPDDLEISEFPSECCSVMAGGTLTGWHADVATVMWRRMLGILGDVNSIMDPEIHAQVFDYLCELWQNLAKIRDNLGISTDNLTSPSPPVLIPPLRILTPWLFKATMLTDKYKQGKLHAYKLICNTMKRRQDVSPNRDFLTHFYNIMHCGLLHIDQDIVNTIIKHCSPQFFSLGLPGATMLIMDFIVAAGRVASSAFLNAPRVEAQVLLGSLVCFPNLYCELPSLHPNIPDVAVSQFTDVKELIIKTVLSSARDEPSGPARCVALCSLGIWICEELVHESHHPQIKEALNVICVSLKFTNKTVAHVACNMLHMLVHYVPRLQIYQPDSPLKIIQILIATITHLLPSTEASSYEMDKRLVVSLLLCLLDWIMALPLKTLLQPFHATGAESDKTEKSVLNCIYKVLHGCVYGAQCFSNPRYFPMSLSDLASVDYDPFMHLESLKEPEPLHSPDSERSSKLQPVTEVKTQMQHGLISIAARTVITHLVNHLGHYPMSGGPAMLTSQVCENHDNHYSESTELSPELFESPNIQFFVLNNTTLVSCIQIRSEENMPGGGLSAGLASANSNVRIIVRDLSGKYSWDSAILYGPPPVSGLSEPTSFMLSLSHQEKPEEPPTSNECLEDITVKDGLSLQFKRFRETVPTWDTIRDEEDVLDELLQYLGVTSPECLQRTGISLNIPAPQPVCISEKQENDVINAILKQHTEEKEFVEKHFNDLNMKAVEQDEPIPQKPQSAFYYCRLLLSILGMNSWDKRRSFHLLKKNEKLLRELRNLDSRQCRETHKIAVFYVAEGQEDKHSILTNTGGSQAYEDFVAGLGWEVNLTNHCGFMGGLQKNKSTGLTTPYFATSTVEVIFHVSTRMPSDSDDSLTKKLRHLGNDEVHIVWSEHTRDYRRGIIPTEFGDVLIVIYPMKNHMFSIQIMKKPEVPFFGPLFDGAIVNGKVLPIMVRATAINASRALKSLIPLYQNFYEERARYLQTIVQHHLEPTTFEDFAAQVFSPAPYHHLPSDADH
Consider MWRIWRCRLSFLFATGCLLGALTAGLGSQMSDSVGRNVQAPAGVADASQEAGDVVEERTERTEEQAFALGPPRRHSSESLFPRNASVTARRRRNRRIALIATAVGVAVILAAVYVLRRRRAQRPQDPEPPAPRSVEDPEVLPEEDEASSSLPPPPPPSPPPPPPVEDPLSPESQTVDLSCLSGTTVRFFGPSHHFGGFTPLYDPAPDKRVATVDAGANALFIGGGGLNGQFAKTLLEEAEKHGIRLTPEELSQHSQRIQQSLLRRAVKSPGKLVELDTGVASRVFARSFGFVPVVPGLMWEESEVGPNVGVTFVHILKPEVTPYGNLNNNVMMYTVAPSGAAPDKTYSLAYKTTIAGVIGAAAAYNDTPAGQQYPVQGLRLPLLGGGIFRRNRSLESIGRANAEGTSLAITRYGPNFELQYMYDPSNAALHGLQEAESTYLASMLD [P283R], for which the “effect of a mutation on the interaction” value is recorded as “disrupting interaction strength”.

For the variant MWRIWRCRLSFLFATGCLLGALTAGLGSQMSDSVGRNVQAPAGVADASQEAGDVVEERTERTEEQAFALGPPRRHSSESLFPRNASVTARRRRNRRIALIATAVGVAVILAAVYVLRRRRAQRPQDPEPPAPRSVEDPEVLPEEDEASSSLPPPPPPSPPPPPPVEDPLSPESQTVDLSCLSGTTVRFFGPSHHFGGFTPLYDPAPDKRVATVDAGANALFIGGGGLNGQFAKTLLEEAEKHGIRLTPEELSQHSQRIQQSLLRRAVKSPGKLVELDTGVASPVFARSFGFVPVVPGLMWEESEVGPNVGVTFVHILKPEVTPYGNLNNNVMMYTVAPSGAAPDKTYSLAYKTTIAGVIGAAAAYNDTPAGQQYPVQGLRLPLLGGGIFRRNRSLESIGRANAEGTSLAITRYGPNFELQYMYDPSNAALHGLQEAERTYKASMLD [S438R;L441K], the “effect of a mutation on the interaction” value is reported as “with no effect”.

Turning to MWRIWRCRLSFLFATGCLLGALTAGLGSQMSDSVGRNVQAPAGVADASQEAGDVVEERTERTEEQAFALGPPRRHSSESLFPRNASVTARRRRNRRIALIATAVGVAVILAAVYVLRRRRAQRPQDPEPPAPRSVEDPEVLPEEDEASSSLPPPPPPSPPPPPPVEDPLSPESQTVDLSCLSGTTVRFFGPSHHFGGFTPLYDPAPDKRVATVDAGANALFIGGGGLNGQFAKTLLEEAEKHGIRLTPEELSQHSQRIQQSLLRRAVKSPGKLVELDTGRASPVFARSFGFVPVVPGLMWEESEVGPNVGVTFVHILKPEVTPYGNLNNNVMMYTVAPSGAAPDKTYSLAYKTTIAGVIGAAAAYNDTPAGQQYPVQGLRLPLLGGGIFRRNRSLESIGRANAEGTSLAITRYGPNFELQYMYDPSNAALHGLQEAESTYLASMLD [V280R], the “effect of a mutation on the interaction” value is “disrupting interaction strength”.

MWRIWRCRLSFLFATGCLLGALTAGLGSQMSDSVGRNVQAPAGVADASQEAGDVVEERTERTEEQAFALGPPRRHSSESLFPRNASVTARRRRNRRIALIATAVGVAVILAAVYVLRRRRAQRPQDPEPPAPRSVEDPEVLPEEDEASSSLPPPPPPSPPPPPPVEDPLSPESQTVDLSCLSGTTVRFFGPSHHFGGFTPLYDPAPDKRVATVDAGANALFIGGGGLNGQFAKTLLEEAEKHGIRLTPEELSQHSQRIQQSLLRRAVKSPGKLVELDTGVASPVFARSFGFVPVVPGLMWEESEVGPNVGVTFVHILKPEVTPYGNLNNNVMMYTVAPSGAAPDKTYSLAYKTTIAGVIGAAAAYNDTPAGQQYPVQGLRLPLLGGGIFRRNRSLESIGRANAEGTSLAITRYGPNFELQYMYDPSNAALHGLQEAERKYKASMLD [S438R;T439K;L441K]: the “effect of a mutation on the interaction” value is “with no effect”.

Take MWRIWRCRLSFLFATGCLLGALTAGLGSQMSDSVGRNVQAPAGVADASQEAGDVVEERTERTEEQAFALGPPRRHSSESLFPRNASVTARRRRNRRIALIATAVGVAVILAAVYVLRRRRAQRPQDPEPPAPRSVEDPEVLPEEDEASSSLPPPPPPSPPPPPPVEDPLSPESQTVDLSCLSGTTVRFFGPSHHFGGFTPLYDPAPDKRVATVDAGANALFIGGGGLNGQFAKTLLEEAEKHGIRLTPEELSQHSQRIQQSLLRRAVKSPGKLVELDTGVFSPVFARSFGFVPVVPGLMWEESEVGPNVGVTFVHILKPEVTPYGNLNNNVMMYTVAPSGAAPDKTYSLAYKTTIAGVIGAAAAYNDTPAGQQYPVQGLRLPLLGGGIFRRNRSLESIGRANAEGTSLAITRYGPNFELQYMYDPSNAALHGLQEAESTYLASMLD [A281F]: the “effect of a mutation on the interaction” value is given as “disrupting interaction strength”.

Variants of B1 are the subject of a further assay. To be noted: with RALGAPA1, Q6GYQ0-1. The source holds these as a separate data set.
As to MWRIWRCRLSFLFATGCLLGALTAGLGSQMSDSVGRNVQAPAGVADASQEAGDVVEERTERTEEQAFALGPPRRHSSESLFPRNASVTARRRRNRRIALIATAVGVAVILAAVYVLRRRRAQRPQDPEPPAPRSVEDPEVLPEEDEASSSLPPPPPPSPPPPPPVEDPLSPESQTVDLSCLSGTTVRFFGPSHHFGGFTPLYDPAPDKRVATVDAGANALFIGGGGLNGQFAKTLLEEAEKHGIRLTPEELSQHSQRIQQSLLRRAVKSPGKLVELDTGVASPVFARSFGFVPVVPGLMWEESEVGPNVGVTFVHILKPEVTPYGNLNNNVMMYTVAPSGAAPDKTYSLAYKTTIAGVIGAAAAYNDTPAGQQYPVQGLRLPLLGGGIFRRNRSLESIGRANAEGTSLAITRYGPNFELQYMYDPSNAALHGLQEAERTYKASMLD [S438R;L441K], the “effect of a mutation on the interaction” value is recorded as “decreasing interaction strength”.

In the case of MWRIWRCRLSFLFATGCLLGALTAGLGSQMSDSVGRNVQAPAGVADASQEAGDVVEERTERTEEQAFALGPPRRHSSESLFPRNASVTARRRRNRRIALIATAVGVAVILAAVYVLRRRRAQRPQDPEPPAPRSVEDPEVLPEEDEASSSLPPPPPPSPPPPPPVEDPLSPESQTVDLSCLSGTTVRFFGPSHHFGGFTPLYDPAPDKRVATVDAGANALFIGGGGLNGQFAKTLLEEAEKHGIRLTPEELSQHSQRIQQSLLRRAVKSPGKLVELDTGVASPVFARSFGFVPVVPGLMWEESEVGPNVGVTFVHILKPEVTPYGNLNNNVMMYTVAPSGAAPDKTYSLAYKTTIAGVIGAAAAYNDTPAGQQYPVQGLRLPLLGGGIFRRNRSLESIGRANAEGTSLAITRYGPNFELQYMYDPSNAALHGLQEAERKYKASMLD [S438R;T439K;L441K], the “effect of a mutation on the interaction” value is listed as “decreasing interaction strength”.
